Results on 1 molecule are retold here after patent US20040121957A1.

The target of the assay is ΔNEG2-CFTR (CFTR with amino acids 817-838 deleted) (human), P13569. Description: cell-based or functional assay.
ΔNEG2-CFTR (CFTR with amino acids 817-838 deleted) (human), P13569, sequence (P13569 other isoform, or with tags, fused parts or gaps mutant): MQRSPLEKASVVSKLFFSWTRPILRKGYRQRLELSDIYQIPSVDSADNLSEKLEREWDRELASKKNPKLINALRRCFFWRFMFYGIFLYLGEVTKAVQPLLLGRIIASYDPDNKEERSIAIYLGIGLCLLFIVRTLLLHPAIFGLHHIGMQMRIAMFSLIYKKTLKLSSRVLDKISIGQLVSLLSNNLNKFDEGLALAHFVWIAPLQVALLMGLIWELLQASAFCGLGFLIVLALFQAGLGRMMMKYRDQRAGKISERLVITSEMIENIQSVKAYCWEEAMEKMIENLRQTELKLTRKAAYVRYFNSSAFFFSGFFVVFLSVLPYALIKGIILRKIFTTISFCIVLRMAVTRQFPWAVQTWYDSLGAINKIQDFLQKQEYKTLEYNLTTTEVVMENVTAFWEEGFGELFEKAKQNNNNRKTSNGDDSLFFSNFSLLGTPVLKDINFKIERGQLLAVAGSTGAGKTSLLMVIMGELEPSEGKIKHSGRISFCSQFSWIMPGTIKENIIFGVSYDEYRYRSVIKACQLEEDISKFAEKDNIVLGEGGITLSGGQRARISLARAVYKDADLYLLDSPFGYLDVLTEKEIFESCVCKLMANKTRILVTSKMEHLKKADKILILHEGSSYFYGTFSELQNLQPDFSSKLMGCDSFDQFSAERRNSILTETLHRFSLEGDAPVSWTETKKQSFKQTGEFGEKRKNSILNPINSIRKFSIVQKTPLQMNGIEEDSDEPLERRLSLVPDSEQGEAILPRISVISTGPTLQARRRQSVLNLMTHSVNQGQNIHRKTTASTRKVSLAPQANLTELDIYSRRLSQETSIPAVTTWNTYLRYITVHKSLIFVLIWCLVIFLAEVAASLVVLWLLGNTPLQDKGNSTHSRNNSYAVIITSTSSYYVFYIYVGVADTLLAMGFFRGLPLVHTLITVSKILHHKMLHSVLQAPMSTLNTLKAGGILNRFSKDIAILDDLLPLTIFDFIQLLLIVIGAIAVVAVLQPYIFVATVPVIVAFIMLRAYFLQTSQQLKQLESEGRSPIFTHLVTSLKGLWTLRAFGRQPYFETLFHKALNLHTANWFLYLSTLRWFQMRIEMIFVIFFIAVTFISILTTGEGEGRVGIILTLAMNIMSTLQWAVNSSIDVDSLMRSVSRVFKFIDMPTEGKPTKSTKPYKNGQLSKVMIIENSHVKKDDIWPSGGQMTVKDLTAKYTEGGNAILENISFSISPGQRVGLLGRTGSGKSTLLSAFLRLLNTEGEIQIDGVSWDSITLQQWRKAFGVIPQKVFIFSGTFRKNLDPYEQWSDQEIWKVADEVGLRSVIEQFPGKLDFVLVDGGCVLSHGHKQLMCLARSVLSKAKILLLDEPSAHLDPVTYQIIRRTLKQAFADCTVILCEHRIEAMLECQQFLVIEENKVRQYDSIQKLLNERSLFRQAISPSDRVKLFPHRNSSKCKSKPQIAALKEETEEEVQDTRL

As for GLEISEEINEEDLKECFFDDME [synthetic NEG2 peptide (22 amino acid peptide corresponding to CFTR amino acids 817-838)], the stimulation of single channel (peptide concentration) was 0.44 µM.
